Five molecules from PMC4426065 (Structure (London, England : 1993), 2015) can be followed below.

First the molecules themselves.
B1: Atg17 (K. lactis) (natural protein, Kluyveromyces lactis, UniProt Q6CS99 1-423, looked up)
chain: MSDAATTIPSDEIDKLWNKARNQLVEAQVECEESLKILSKVRTEMDSSQKSRFKLKFILNCLVNQVEFFKNIMLEKCISTELIDNEWSKLVLVEIVNDVSYWQNEITTKMKILQGTKYDLTDDHSSLSDFICMDHVDILQQKIDEIPIIKQQVTNIRQHYKSIKDRIENQLVAVKLKKLRTYFDSHFSRDSKNNLFKLLESDYVTELNEFENELADFLRSITDHFDKCTILKEQQIPLPDLKELFQIVKKDDTQLENIRELVFETGLEVKAFSKKVNETISEIMDKIGGFHLLASKIVTELEKCEEYLSIFQKIANLVFVYKESCIKKIEQVQQLCEFYDKFKLGYKNLLRERDRRKATALQMEKILKECQEKLQALSDADLDQRQQFLLENGDYLPENIWPGYIDDMESMYSFEYSIHNVPN
B2: Atg1 EAT domain (K. lactis Atg1 residues 562-831) (domain or fragment, Kluyveromyces lactis, UniProt Q6CSX2 562-831, looked up)
chain: DSNITPAVESLAAKAFVMYSFAEMKFSQILPTPPSSTDYDPLSDKRLSNGSCAIEDEEDLDQGRPPSNQTLTSATTKISSATNVDTQIPAPELKKLCTESLLLYLKALTILAASMKLTSKWWYENESKNCTLKLNILVQWIRDRFNECLDKAEFLRLKLHAINTSPNSQWSDDDPVIFVEKLIYDRALDISRNAARMEMESGNYNTCELAYATSLWMLEILLDENFQFNEVYDDEYASNITSLDESDKEMIKKYISSIANRLKALKSKMV
B3: Atg13 residues 350-525 (K. lactis) (domain or fragment, Kluyveromyces lactis, UniProt Q6CWK2 350-525, looked up)
chain: AALKVQRGSAGSTIVNGDVPPELSSVGSGSKYSSSFGRIRRHSSIRRSESFDRTAKPRKSTENPPEDLLEFVKLLEDKKELNMKPNTILPQQDISNSLMRFQSMKSNNDALSDNLSMSMSIDQPNVRFGSNSHSPIPSFSPNYGSIPSRLSQGSRNNSNAELITSRKSSLDRHKHN

Holding throughout (test): SAXS
In data set [1] the target is Atg1 minipentamer: Atg1EAT-Atg13_(350-525)-Atg17-Atg31-Atg29_(1-85) (K. lactis) (Kluyveromyces lactis) (UniProt Q6CSX2).
The target of data set [2] is Atg17-Atg31-Atg29_(1-85) subcomplex from Kluyveromyces lactis (dimeric double crescent) (Kluyveromyces lactis) (UniProt Q6CS99).
Data set [3] deals with the molecule itself.
Data set [4] concerns the molecule itself. This is another data set of the same source.
For the data set “Atg17 (K. lactis)”, the target named is B1.

In the case of “Atg1 minipentamer: Atg1EAT-Atg13_(350-525)-Atg17-Atg31-Atg29_(1-85) (K. lactis) (from UniProt Q6CSX2 562-831; Q6CWK2 350-525; Q6CS99 1-423; Q6CTU8 1-85) (complex)”, in data set [1], the stoichiometry N amounted to 4.

Turning to “Atg17-Atg31-Atg29_(1-85) subcomplex from Kluyveromyces lactis (dimeric double crescent) (from UniProt Q6CS99 1-423; Q6CTU8 1-85)”, the stoichiometry N in data set [2] amounted to 4.

B1: the binding result in “SAXS [3]” is recorded as “binds”.

Take B2: the “stoichiometry N” value in the data set “SAXS [4]” amounted to 2.

Consider B3, for which the binding result with Atg17 (K. lactis) was “binds”.
